Experimental data: patent publication US20110044985A1
Residue numbers refer to the chain shown, from its start. Numbers in names are those of the source.

Target: Aβ1-40
Experiment: ELISA, nonbiotinylated peptide on plate

Aβ1-40, sequence (peptide, as listed by the source): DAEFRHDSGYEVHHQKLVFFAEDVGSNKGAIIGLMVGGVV

B1: 6G heavy chain mutant variant 7D (N101C) (antibody, V domains shown)
VH: QVQLVQSGAEVKKPGASVKVSCKASGYTFTTYAIHWVRQAPGQGLEWMGFTSPYSGVSNYNQKFKGRVTMTRDTSTSTVYMELSSLRSEDTAVYYCARFDCYDRGYVRDYWGQGTLVTVS
VL: DIVMTQSPDSLAVSLGERATINCRASESVDNDRISFLNWYQQKPGQPPKLLIYAATKQGTGVPDRFSGSGSGTDFTLTISSLQAEDVAVYYCQQSKEFPWSFGGGTKVEIKR
  A450 ELISA: 0.23 A450

B2: 6G heavy chain mutant variant 9E (N101R) (antibody, V domains shown)
VH: B1 VH with C101R
VL: B1 VL
  A450 ELISA: 0.22 A450
